This note sets out measurements from paper PMC10627512.

The assay concerns the target HipB of the E. coli O127:H6 HipBST toxin-antitoxin system (E. coli O127:H6) (UniProt P23873). Nature of the assay: crystal structure.

Turning to “HipB of the E. coli O127:H6 HipBST toxin-antitoxin system (from UniProt P23873 1-88) (natural protein)”, the stoichiometry N was 2.
